Data on one protein can be found in US20130171677A1 (BOARD OF SUPERVISORS OF THE UNIVERSITY OF LOUISIANA SYSTEM, published 2013).

This series concerns the molecule itself. The series can be described thus: size exclusion chromatography of purified recombinant TeCpcS (complex 53.0 kDa against ~24.0 kDa calculated for HT-TeCpcS). On the procedure:
In order to determine the molecular mass of TeCpcS in its native state, the purified, recombinant TeCpcS was subjected to size exclusion chromatography. The molecular mass of this complex was calculated to be 53.0 kDa, and the calculated molecular mass of HT-TeCpcS is ˜24.0 kDa.

B1: Bilin lyase CpcS from Thermosynechococcus elongatus BP1 (TeCpcS), His-tagged (enzyme)
chain: MCIGMDIRDFFAQSAGRWFSQRTSHHLAFKQTESGKSQLTIELLSVDDPAVIALCQQYDMDPAWAVCGARVSWDGTMEWDNEKHEGSTVLVPIMDQGSRMEGKLLREMGYAEKAPVAGRFSMGSDGALTLITEYETIYSEERLWFASPNLRLRTSILKRFGGFSMASFCSEIRLGVTQPANS
notes: also called HT-TeCpcS; CpcS-III; not shown: C-terminal His-tag from the pET22c construct used for crystallization and size-exclusion chromatography
For B1, the binding result is “binds”.
